# Laboratory results: article PMC9482650, “Quantitative fragmentomics allow affinity mapping of interactomes” (Nature Communications, 2022)
# T1: PDZD11, Q5EBL8
# T1 sequence (Q5EBL8 42-139, limits assumed, looked up): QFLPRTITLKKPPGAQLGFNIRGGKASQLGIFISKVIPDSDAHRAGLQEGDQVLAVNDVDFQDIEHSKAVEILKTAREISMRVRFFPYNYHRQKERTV
# T2: SHROOM4, Q9ULL8
# T2 sequence (Q9ULL8 5-102, limits assumed, looked up): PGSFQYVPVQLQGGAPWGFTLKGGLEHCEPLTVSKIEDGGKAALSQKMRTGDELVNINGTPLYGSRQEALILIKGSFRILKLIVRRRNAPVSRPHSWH
# T3: PTPN13_4, Q12923
# T3 sequence (Q12923 1783-1878, limits assumed, looked up): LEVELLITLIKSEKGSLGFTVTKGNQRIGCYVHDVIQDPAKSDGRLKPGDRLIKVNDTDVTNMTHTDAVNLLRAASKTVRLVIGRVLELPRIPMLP
# T4: USH1C_1, Q9Y6N9
# T4 sequence (Q9Y6N9 82-179, limits assumed, looked up): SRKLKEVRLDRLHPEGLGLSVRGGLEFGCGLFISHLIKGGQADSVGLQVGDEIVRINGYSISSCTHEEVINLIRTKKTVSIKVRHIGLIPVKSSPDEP
# T5: GRIP1_1, Q9Y3R0
# T5 sequence (Q9Y3R0 48-146, limits assumed, looked up): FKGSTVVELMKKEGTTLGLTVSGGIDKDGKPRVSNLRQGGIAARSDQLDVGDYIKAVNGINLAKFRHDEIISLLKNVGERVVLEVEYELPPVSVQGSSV
# T6: PDZD2_6, O15018
# T6 sequence (O15018 2745-2839, limits assumed, looked up): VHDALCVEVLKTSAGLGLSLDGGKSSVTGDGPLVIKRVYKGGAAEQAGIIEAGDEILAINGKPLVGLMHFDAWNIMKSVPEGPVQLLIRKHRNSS
# T7: SHANK3, Q9BYB0
# T7 sequence (Q9BYB0 641-750, limits assumed, looked up): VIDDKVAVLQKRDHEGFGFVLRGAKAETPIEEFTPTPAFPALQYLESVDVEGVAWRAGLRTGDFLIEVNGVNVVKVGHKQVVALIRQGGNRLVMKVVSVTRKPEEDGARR
# T8: SNTB2, Q13425
# T8 sequence (Q13425 110-208, limits assumed, looked up): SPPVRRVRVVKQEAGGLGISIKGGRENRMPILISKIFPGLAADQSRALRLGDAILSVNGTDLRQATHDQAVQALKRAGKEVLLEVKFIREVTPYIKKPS
# T9: PDZD2_3, O15018
# T9 sequence (O15018 581-682, limits assumed, looked up): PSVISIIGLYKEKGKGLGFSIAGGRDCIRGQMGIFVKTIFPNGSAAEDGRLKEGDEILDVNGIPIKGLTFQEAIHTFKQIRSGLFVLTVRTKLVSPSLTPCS
# T10: NHERF3_2, Q5T2W1
# T10 sequence (Q5T2W1 129-225, limits assumed, looked up): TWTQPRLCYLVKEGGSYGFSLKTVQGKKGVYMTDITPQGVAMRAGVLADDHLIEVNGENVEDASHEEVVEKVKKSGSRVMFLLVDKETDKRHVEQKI
# T11: PARD6B, Q9BYG5
# T11 sequence (Q9BYG5 152-260, limits assumed, looked up): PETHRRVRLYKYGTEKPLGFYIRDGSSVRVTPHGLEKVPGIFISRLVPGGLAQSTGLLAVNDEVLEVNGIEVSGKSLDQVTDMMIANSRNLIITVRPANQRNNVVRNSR
# T12: PDZD7_1, Q9H5P4
# T12 sequence (Q9H5P4 81-178, limits assumed, looked up): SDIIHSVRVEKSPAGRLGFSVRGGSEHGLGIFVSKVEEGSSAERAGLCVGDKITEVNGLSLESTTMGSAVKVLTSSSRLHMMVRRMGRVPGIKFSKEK
# T13: USH1C_2, Q9Y6N9
# T13 sequence (Q9Y6N9 206-303, limits assumed, looked up): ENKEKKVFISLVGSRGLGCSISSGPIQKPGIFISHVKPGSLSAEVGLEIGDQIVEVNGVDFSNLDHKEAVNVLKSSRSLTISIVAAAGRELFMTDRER
# T14: MPDZ_7, O75970
# T14 sequence (O75970 1146-1253, limits assumed, looked up): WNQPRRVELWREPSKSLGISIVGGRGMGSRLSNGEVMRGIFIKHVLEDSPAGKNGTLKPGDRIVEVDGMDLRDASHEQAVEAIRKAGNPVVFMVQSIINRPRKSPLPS
# Target: PARD3B_3, Q8TEW8
# Sequence (Q8TEW8 490-594): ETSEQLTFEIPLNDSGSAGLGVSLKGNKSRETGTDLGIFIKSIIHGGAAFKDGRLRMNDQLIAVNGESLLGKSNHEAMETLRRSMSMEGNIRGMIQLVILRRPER
# Assay: holdup assay
# Set-up: key: below the threshold = too weak to quantify, mostly under pKd 3.1 to 4
# Conditions: plain residues with an end cap or a label only (N-terminal biotin on a linker: ttds)
row,Binder,pKd
1,"MERLRVETDV [ARHGEF16, Q5VV41]",below the threshold
2,"QPGTPTRTAV [MAP2K2, P36507]",below the threshold

# Target: T1, PDZD11, Q5EBL8
# Assay: holdup assay
# Set-up: key: below the threshold = too weak to quantify, mostly under pKd 3.1 to 4
# Conditions: plain residues with an end cap or a label only (N-terminal biotin on a linker: ttds)
row,Binder,pKd
1,"MERLRVETDV [ARHGEF16, Q5VV41]",below the threshold
2,"QPGTPTRTAV [MAP2K2, P36507]",below the threshold

# Target: T2, SHROOM4, Q9ULL8
# Assay: holdup assay
# Set-up: key: below the threshold = too weak to quantify, mostly under pKd 3.1 to 4
# Conditions: plain residues with an end cap or a label only (N-terminal biotin on a linker: ttds)
row,Binder,pKd
1,"MERLRVETDV [ARHGEF16, Q5VV41]",4.06
2,"QPGTPTRTAV [MAP2K2, P36507]",below the threshold

# Target: T3, PTPN13_4, Q12923
# Assay: holdup assay
# Set-up: key: below the threshold = too weak to quantify, mostly under pKd 3.1 to 4
# Conditions: plain residues with an end cap or a label only (N-terminal biotin on a linker: ttds)
row,Binder,pKd
1,"MERLRVETDV [ARHGEF16, Q5VV41]",below the threshold
2,"QPGTPTRTAV [MAP2K2, P36507]",below the threshold

# Target: T4, USH1C_1, Q9Y6N9
# Assay: holdup assay
# Set-up: key: below the threshold = too weak to quantify, mostly under pKd 3.1 to 4
# Conditions: plain residues with an end cap or a label only (N-terminal biotin on a linker: ttds)
row,Binder,pKd
1,"MERLRVETDV [ARHGEF16, Q5VV41]",below the threshold
2,"QPGTPTRTAV [MAP2K2, P36507]",below the threshold

# Target: T5, GRIP1_1, Q9Y3R0
# Assay: holdup assay
# Set-up: key: below the threshold = too weak to quantify, mostly under pKd 3.1 to 4
# Conditions: plain residues with an end cap or a label only (N-terminal biotin on a linker: ttds)
row,Binder,pKd
1,"MERLRVETDV [ARHGEF16, Q5VV41]",below the threshold
2,"QPGTPTRTAV [MAP2K2, P36507]",below the threshold

# Target: T6, PDZD2_6, O15018
# Assay: holdup assay
# Set-up: key: below the threshold = too weak to quantify, mostly under pKd 3.1 to 4
# Conditions: plain residues with an end cap or a label only (N-terminal biotin on a linker: ttds)
row,Binder,pKd
1,"MERLRVETDV [ARHGEF16, Q5VV41]",below the threshold
2,"QPGTPTRTAV [MAP2K2, P36507]",below the threshold

# Target: RGS3, P49796-9
# Sequence (P49796 other isoform, or with tags, fused parts or gaps): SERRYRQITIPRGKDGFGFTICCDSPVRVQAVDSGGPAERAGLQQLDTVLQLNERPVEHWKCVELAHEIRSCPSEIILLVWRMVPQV
# Assay: holdup assay
# Set-up: key: below the threshold = too weak to quantify, mostly under pKd 3.1 to 4
# Conditions: plain residues with an end cap or a label only (N-terminal biotin on a linker: ttds)
row,Binder,pKd
1,"MERLRVETDV [ARHGEF16, Q5VV41]",below the threshold
2,"QPGTPTRTAV [MAP2K2, P36507]",below the threshold

# Target: MAGIX, Q9H6Y5
# Sequence (Q9H6Y5 118-211): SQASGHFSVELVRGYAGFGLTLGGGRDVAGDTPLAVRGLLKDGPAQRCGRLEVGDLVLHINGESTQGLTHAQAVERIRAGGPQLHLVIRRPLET
# Assay: holdup assay
# Set-up: key: below the threshold = too weak to quantify, mostly under pKd 3.1 to 4
# Conditions: plain residues with an end cap or a label only (N-terminal biotin on a linker: ttds)
row,Binder,pKd
1,"MERLRVETDV [ARHGEF16, Q5VV41]",below the threshold
2,"QPGTPTRTAV [MAP2K2, P36507]",below the threshold

# Target: RIMS1, Q86UR5
# Sequence (Q86UR5 584-692): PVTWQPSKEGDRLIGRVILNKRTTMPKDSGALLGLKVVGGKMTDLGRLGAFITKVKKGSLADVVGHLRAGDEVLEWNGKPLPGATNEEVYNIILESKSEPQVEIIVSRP
# Assay: holdup assay
# Set-up: key: below the threshold = too weak to quantify, mostly under pKd 3.1 to 4
# Conditions: plain residues with an end cap or a label only (N-terminal biotin on a linker: ttds)
row,Binder,pKd
1,"MERLRVETDV [ARHGEF16, Q5VV41]",below the threshold
2,"QPGTPTRTAV [MAP2K2, P36507]",below the threshold

# Target: MAGI1_3, Q96QZ7
# Sequence (Q96QZ7 638-725): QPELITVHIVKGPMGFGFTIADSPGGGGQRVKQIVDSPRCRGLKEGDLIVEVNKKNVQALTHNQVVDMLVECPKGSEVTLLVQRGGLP
# Assay: holdup assay
# Set-up: key: below the threshold = too weak to quantify, mostly under pKd 3.1 to 4
# Conditions: plain residues with an end cap or a label only (N-terminal biotin on a linker: ttds)
row,Binder,pKd
1,"MERLRVETDV [ARHGEF16, Q5VV41]",below the threshold
2,"QPGTPTRTAV [MAP2K2, P36507]",below the threshold

# Target: MAGI1_6, Q96QZ7
# Sequence (Q96QZ7 1146-1238): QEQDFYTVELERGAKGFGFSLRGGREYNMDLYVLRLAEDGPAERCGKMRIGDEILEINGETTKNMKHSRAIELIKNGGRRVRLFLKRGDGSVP
# Assay: holdup assay
# Set-up: key: below the threshold = too weak to quantify, mostly under pKd 3.1 to 4
# Conditions: plain residues with an end cap or a label only (N-terminal biotin on a linker: ttds)
row,Binder,pKd
1,"MERLRVETDV [ARHGEF16, Q5VV41]",4.33
2,"QPGTPTRTAV [MAP2K2, P36507]",below the threshold

# Target: T7, SHANK3, Q9BYB0
# Assay: holdup assay
# Set-up: key: below the threshold = too weak to quantify, mostly under pKd 3.1 to 4
# Conditions: plain residues with an end cap or a label only (N-terminal biotin on a linker: ttds)
row,Binder,pKd
1,"MERLRVETDV [ARHGEF16, Q5VV41]",below the threshold
2,"QPGTPTRTAV [MAP2K2, P36507]",below the threshold

# Target: T8, SNTB2, Q13425
# Assay: holdup assay
# Set-up: key: below the threshold = too weak to quantify, mostly under pKd 3.1 to 4
# Conditions: plain residues with an end cap or a label only (N-terminal biotin on a linker: ttds)
row,Binder,pKd
1,"MERLRVETDV [ARHGEF16, Q5VV41]",4.42
2,"QPGTPTRTAV [MAP2K2, P36507]",below the threshold

# Target: T9, PDZD2_3, O15018
# Assay: holdup assay
# Set-up: key: below the threshold = too weak to quantify, mostly under pKd 3.1 to 4
# Conditions: plain residues with an end cap or a label only (N-terminal biotin on a linker: ttds)
row,Binder,pKd
1,"MERLRVETDV [ARHGEF16, Q5VV41]",below the threshold
2,"QPGTPTRTAV [MAP2K2, P36507]",below the threshold

# Target: T10, NHERF3_2, Q5T2W1
# Assay: holdup assay
# Set-up: key: below the threshold = too weak to quantify, mostly under pKd 3.1 to 4
# Conditions: plain residues with an end cap or a label only (N-terminal biotin on a linker: ttds)
row,Binder,pKd
1,"MERLRVETDV [ARHGEF16, Q5VV41]",below the threshold
2,"QPGTPTRTAV [MAP2K2, P36507]",below the threshold

# Target: DLG2_1, Q15700
# Assay: holdup assay
# Set-up: key: below the threshold = too weak to quantify, mostly under pKd 3.1 to 4
# Conditions: plain residues with an end cap or a label only (N-terminal biotin on a linker: ttds)
row,Binder,pKd
1,"MERLRVETDV [ARHGEF16, Q5VV41]",4.1
2,"QPGTPTRTAV [MAP2K2, P36507]",below the threshold

# Target: PDZRN4_2, Q6ZMN7
# Sequence (Q6ZMN7 389-498): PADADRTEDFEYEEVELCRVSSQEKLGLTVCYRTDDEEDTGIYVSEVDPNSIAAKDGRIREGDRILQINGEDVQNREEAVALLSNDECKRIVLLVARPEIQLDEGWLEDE
# Assay: holdup assay
# Set-up: key: below the threshold = too weak to quantify, mostly under pKd 3.1 to 4
# Conditions: plain residues with an end cap or a label only (N-terminal biotin on a linker: ttds)
row,Binder,pKd
1,"MERLRVETDV [ARHGEF16, Q5VV41]",below the threshold
2,"QPGTPTRTAV [MAP2K2, P36507]",below the threshold

# Target: T11, PARD6B, Q9BYG5
# Assay: holdup assay
# Set-up: key: below the threshold = too weak to quantify, mostly under pKd 3.1 to 4
# Conditions: plain residues with an end cap or a label only (N-terminal biotin on a linker: ttds)
row,Binder,pKd
1,"MERLRVETDV [ARHGEF16, Q5VV41]",below the threshold
2,"QPGTPTRTAV [MAP2K2, P36507]",below the threshold

# Target: PDLIM4, P50479
# Sequence (P50479 1-83): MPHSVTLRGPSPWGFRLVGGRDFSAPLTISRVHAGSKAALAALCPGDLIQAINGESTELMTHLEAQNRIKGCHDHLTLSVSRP
# Assay: holdup assay
# Set-up: key: below the threshold = too weak to quantify, mostly under pKd 3.1 to 4
# Conditions: plain residues with an end cap or a label only (N-terminal biotin on a linker: ttds)
row,Binder,pKd
1,"MERLRVETDV [ARHGEF16, Q5VV41]",below the threshold
2,"QPGTPTRTAV [MAP2K2, P36507]",below the threshold

# Target: T12, PDZD7_1, Q9H5P4
# Assay: holdup assay
# Set-up: key: below the threshold = too weak to quantify, mostly under pKd 3.1 to 4
# Conditions: plain residues with an end cap or a label only (N-terminal biotin on a linker: ttds)
row,Binder,pKd
1,"MERLRVETDV [ARHGEF16, Q5VV41]",below the threshold
2,"QPGTPTRTAV [MAP2K2, P36507]",below the threshold

# Target: T13, USH1C_2, Q9Y6N9
# Assay: holdup assay
# Set-up: key: below the threshold = too weak to quantify, mostly under pKd 3.1 to 4
# Conditions: plain residues with an end cap or a label only (N-terminal biotin on a linker: ttds)
row,Binder,pKd
1,"MERLRVETDV [ARHGEF16, Q5VV41]",below the threshold
2,"QPGTPTRTAV [MAP2K2, P36507]",below the threshold

# Target: T14, MPDZ_7, O75970
# Assay: holdup assay
# Set-up: key: below the threshold = too weak to quantify, mostly under pKd 3.1 to 4
# Conditions: plain residues with an end cap or a label only (N-terminal biotin on a linker: ttds)
row,Binder,pKd
1,"MERLRVETDV [ARHGEF16, Q5VV41]",below the threshold
2,"QPGTPTRTAV [MAP2K2, P36507]",below the threshold
